Measurements taken from patent US20140227293A1 (TRUSTEES OF BOSTON UNIVERSITY, published 2014).

Target: the molecule itself
Assay: BS3 chemical cross-linking of PAE cells expressing IGPR-1 (confluent versus sparse), anti-IGPR-1 Western blot
Experimental: To determine whether IGPR-1 is involved in cell-cell interaction inventors subjected PAE cells expressing IGPR-1 and ΔN-IGPR-1 to aggregation/cell-cell adhesion assay. […] To further establish role of IGPR-1 in cell-cell interaction, the inventors investigated dimerization of IGPR-1 particularly its possible trans-dimerization. Inventors reasoned that if cells are plated in confluent condition, IGPR-1 could form trans-dimerization and possibly cis-dimerization (see FIG. 9C). However, plating the cells in a sparse condition, IGPR-1 will be less able to form trans-dimerization.

B1: immunoglobulin containing and proline rich receptor-1 (IGPR-1), human, full length, ectopically expressed in PAE cells (receptor)
chain: LSVQQGPNLLQVRQGSQATLVCQVDQATAWERLRVKWTKDGAILCQPYITNGSLSLGVCGPQGRLSWQAPSHLTLQLDPVSLNHSGAYVCWAAVEIPELEEAEGNITRLFVDPDDPTQNRNRIASFPGFLFVLLGVGSMGVAAIVWGAWFWGRRSCQQRDSGNSPGNAFYSNVLYRPRGPPKKSEDCSGEGKDQRGQSIYSTSFPQPAPRQPHLASRPCPSPRPCPSPRPGHPVSMVRVSPRPSPTQQPRPKGFPKVGEE
modifications: N-glycosylated (apparent 55 kDa, 31 kDa after PNGase F)
notes: Expressed from the retroviral vector pMSCV.puro in PAE (porcine aortic endothelial) cells; Used on intact cells (aggregation, adhesion, BS3 cross-linking) and as whole cell lysate (GST pull-down, co-immunoprecipitation, Western blot); also called IGRP-1; TMIGD2
- binding result: binds
